T1: recombinant human IL-18 (human, UniProt Q14116 37-193)
T1 construct: Commercial recombinant human IL-18; In the Luminex screening it was attached to beads; also called Interleukin-18; human interleukin-18
T1 sequence (looked up): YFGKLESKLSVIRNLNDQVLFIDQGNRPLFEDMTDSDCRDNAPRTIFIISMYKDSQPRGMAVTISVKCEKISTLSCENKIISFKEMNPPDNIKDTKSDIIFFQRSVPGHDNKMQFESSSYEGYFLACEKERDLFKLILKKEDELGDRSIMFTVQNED

T2: IL-18/IL-18BP complex (human, UniProt Q14116 37-193)
T2 construct: Complex of IL-18 with IL-18BP; in the third Luminex screening step IL-18BP was linked to the beads and then complexed to IL-18; Stoichiometry 1:1 is only cited from the literature; also called IL-18 previously complexed to IL-18BP; complex IL-18/IL-18BP
T2 sequence 1: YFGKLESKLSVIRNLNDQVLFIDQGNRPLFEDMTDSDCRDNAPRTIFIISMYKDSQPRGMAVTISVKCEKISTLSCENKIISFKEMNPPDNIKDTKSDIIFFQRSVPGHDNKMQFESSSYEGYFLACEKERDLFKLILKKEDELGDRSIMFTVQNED
T2 sequence 2: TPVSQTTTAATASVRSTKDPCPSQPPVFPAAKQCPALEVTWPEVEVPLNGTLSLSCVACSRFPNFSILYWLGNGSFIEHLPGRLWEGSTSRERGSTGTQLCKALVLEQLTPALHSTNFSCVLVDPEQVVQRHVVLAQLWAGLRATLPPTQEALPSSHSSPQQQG


What was measured:
recombinant human IL-18 [1] = target: T1, recombinant human IL-18; assay: Luminex; mAb on IL-18 beads
IL-18/IL-18BP complex [2] = target: T2, IL-18/IL-18BP complex; assay: Luminex; mAb on IL-18 complexed to bead-linked IL-18BP
recombinant human IL-18 [3] = target: T1, recombinant human IL-18; assay: Luminex; biotinylated IL-18BP (competitor) on IL-18 beads pre-bound with the mAb; the signal is IL-18BP binding
IL-18/IL-18BP complex [4] = target: T2, IL-18/IL-18BP complex; assay: Luminex third screening against first screening

Binder | Fluorescence intensity (recombinant human IL-18 [1]) | Fluorescence intensity (IL-18/IL-18BP complex [2]) | Fluorescence intensity (IL-18BP binding on IL-18 previously complexed to monoclonal antibody) (recombinant human IL-18 [3]) | fold inhibition of binding to IL-18 complexed to IL-18BP against binding to IL-18 alone (IL-18/IL-18BP complex [4])
Antibody 111A6 (antibody, V domains shown) VH: EVQLQQSGAELVKPGASVKLSCTASGFKIKDTYIHWVIQRPAQGLEWIGRIDPANGNTIYGSKFQGKATLTADTSSNTAYIHLSSLTSGDSAVYYCAGYVWFAYWGQGTLVTVSA VL: DVVMTQVPLSLPVSLGDQASISCRSSQRLVHSNGNTYLHWFLQKPGQSPKLLIYTVSNRFSGVPDRFSGSGSGTDFTLKISRVEAEDLGVYFCSQSTLVPWTFGGGTKLEIK | 25900 fluorescence intensity | 42 fluorescence intensity | 1400 fluorescence intensity | 
Antibody 131E8 (antibody) chain 1: QVQLKQSRPGPVQPSQSLSITCTVSGFSLPNYGVHWVRQPPGKGLEWLGVIWSGGSTDYNAAFKSRLSISKDNSKSQVFFKMNSLQADDTAIYYCARNFYSKYDYAMDYWGQGTSVTVSS chain 2: QVQLQQPGSVLVRPGASVKLSCKASGYTFTSYWMHWVKQRPGQGLEWIGNINPNSGSTNYNEKFKGKATLTVDTSSSTAYMDLSSLTSEDSAVYYCARLGDYWGQGTTLTVSS chain 3: ENVLTQSPAIMSASPGEKVTMTCSASSSVSYMHWYQQKSSTSPKLWIYDTSKLASGVPGRFSGSGSGNSYSLTISSMEAEDVATYYCFQGSGYPLTFGSGTKLEIK | 25400 fluorescence intensity | 36 fluorescence intensity | 1390 fluorescence intensity | > 500 fold
